Measurements reported in the supplement of paper PMC9112550, “Optimization of the antimicrobial peptide Bac7 by deep mutational scanning” (BMC Biology, 2022).

Test system: Escherichia coli TOP10
Experiment: shrunken log2 fold change of peptide-encoding DNA abundance (4.5 h post-induction vs induction); higher = less antimicrobial activity (less host growth inhibition)
Conditions: time post-induction: 4.5 h; library: site-saturation at positions 5, 18, 19, 20
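Also: peptides expressed intracellularly from a pBAD plasmid library in pooled LB shake-flask culture, induced with 0.3% L-arabinose, DNA abundance read by NGS, three biological replicates, DESeq2 with apeglm shrinkage.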

Row | Sequence | shrunken log2 fold change
1 | RRIRIRPPRLPRPRPRPQHTPRP | -1
2 | RRIRPRPPRLPRPRPRPYNVPRP | -0.0809
3 | RRIRKRPPRLPRPRPRPDAMPRP | 0.618
4 | RRIRCRPPRLPRPRPRPLPVPRP | -0.105
5 | RRIRGRPPRLPRPRPRPPSEPRP | 0.856
6 | RRIRFRPPRLPRPRPRPISTPRP | -0.24
7 | RRIRRRPPRLPRPRPRPRECPRP | -0.12
8 | RRIRLRPPRLPRPRPRPRKYPRP | -0.882
9 | RRIRARPPRLPRPRPRPHPEPRP | 0.7
10 | RRIRMRPPRLPRPRPRPLYSPRP | -1.32
11 | RRIRVRPPRLPRPRPRPMCLPRP | -0.0244
12 | RRIRQRPPRLPRPRPRPQSEPRP | -0.173
13 | RRIRSRPPRLPRPRPRPSILPRP | -0.235
14 | RRIRNRPPRLPRPRPRPHNSPRP | -0.767
15 | RRIRHRPPRLPRPRPRPGQQPRP | -0.028
16 | RRIRARPPRLPRPRPRPQGQPRP | -0.2
17 | RRIRQRPPRLPRPRPRPDPFPRP | -0.401
18 | RRIRMRPPRLPRPRPRPASPPRP | 0.14
19 | RRIRFRPPRLPRPRPRPFIVPRP | -0.772
20 | RRIRLRPPRLPRPRPRPRFHPRP | -0.208
21 | RRIRNRPPRLPRPRPRPTQSPRP | 0.291
22 | RRIRERPPRLPRPRPRPSCRPRP | -0.249
